Experimental data published in the Human Domainome abundance scans (Beltran et al. 2025).
± gives the uncertainty stated by the source.

B1: Ankyrin-1, residues 1405 to 1484; numbered along this chain, P16157 (parent)
chain: MKMAVISEHLGLSWAELARELQFSVEDINRIRVENPNSLLEQSVALLNLWVIREGQNANMENLYTALQSIDRGEIVNMLE

Variants of: B1
Test: abundance fitness (aPCA) (normalised: wild type 0, dead -1); higher = more abundant; growth selection in yeast, the domain comes from the species named
Conditions: Homo sapiens

Row | Variant | abundance fitness
1 | MKMAVISEHLGLSWAELARELQFSVEDINRIRVENPNSLLEQSVALLNLWVIREGQNANVENLYTALQSIDRGEIVNMLE [M60V] | 0.117 ± 0.12
2 | MKMAVISEHLGLSWAELARELQFSVEDINRIMVENPNSLLEQSVALLNLWVIREGQNANMENLYTALQSIDRGEIVNMLE [R32M] | -0.35 ± 0.13
3 | MKMAVISEHLGLFWAELARELQFSVEDINRIRVENPNSLLEQSVALLNLWVIREGQNANMENLYTALQSIDRGEIVNMLE [S13F] | -0.333 ± 0.14
4 | MKMAVISEHLGLSWAELARELQFSVEDINRIRVENPNSLLECSVALLNLWVIREGQNANMENLYTALQSIDRGEIVNMLE [Q42C] | -0.061 ± 0.095
5 | MKMAVISEHLGLSWAELARELQFSPEDINRIRVENPNSLLEQSVALLNLWVIREGQNANMENLYTALQSIDRGEIVNMLE [V25P] | 0.018 ± 0.076
6 | MKMAVISEHLGLSWAELARELQFSWEDINRIRVENPNSLLEQSVALLNLWVIREGQNANMENLYTALQSIDRGEIVNMLE [V25W] | -0.265 ± 0.069
7 | MKMAVISEHLGLSWAELARELQFSREDINRIRVENPNSLLEQSVALLNLWVIREGQNANMENLYTALQSIDRGEIVNMLE [V25R] | -0.07 ± 0.046
8 | MKMAVISEHLGLSWAELARELQFSVEDINRIRVENPNSALEQSVALLNLWVIREGQNANMENLYTALQSIDRGEIVNMLE [L39A] | -0.103 ± 0.069
9 | MKMAVISEHLGLSWAELARELQFSVEDINRIRLENPNSLLEQSVALLNLWVIREGQNANMENLYTALQSIDRGEIVNMLE [V33L] | -0.001 ± 0.061
10 | MKMAVISEHLGLSWAELARELQFSVEDINRIRVENPNSLLEQSVALLNLWVIREEQNANMENLYTALQSIDRGEIVNMLE [G55E] | -0.266 ± 0.18
11 | MKMAVISEHLGLSWAELARELQFSVEDINRIRVENPNSLLEQSVALLNLWVIREGQNANMETLYTALQSIDRGEIVNMLE [N62T] | 0.211 ± 0.1
12 | MKMAVISEHLGLSWAELARELQFSVEDINRIRVENPNSLLEQSVALLNLWVIREGQNANMEPLYTALQSIDRGEIVNMLE [N62P] | -0.265 ± 0.15
13 | MKMAVISEHLGLSWAELARELQFSVEDINRIRVENPNSLLEQSVALLNLWVIREGQNANMEALYTALQSIDRGEIVNMLE [N62A] | -0.045 ± 0.079
14 | MKMAVISEHLGLSWAELARELQFSVEDINRIRVENPNSLLEQSVALLNAWVIREGQNANMENLYTALQSIDRGEIVNMLE [L49A] | -0.138 ± 0.057
15 | MKMAEISEHLGLSWAELARELQFSVEDINRIRVENPNSLLEQSVALLNLWVIREGQNANMENLYTALQSIDRGEIVNMLE [V5E] | -0.372 ± 0.096
16 | MKMAVISEHLGLSWAELARELQFSVEDINRIRVENPNSLLEQSVALLNLWVIREGQNAKMENLYTALQSIDRGEIVNMLE [N59K] | -0.02 ± 0.19
17 | MKMAVISEHLGLSWAELARELQFSVEDINRIRVENPNSLLEQSVALLNLWVIREGGNANMENLYTALQSIDRGEIVNMLE [Q56G] | -0.035 ± 0.05
18 | MKMAVISEHLGLSWAELARELQFSVEDINRIRVENPNSLLEQSVALLNLWVIRRGQNANMENLYTALQSIDRGEIVNMLE [E54R] | -0.456 ± 0.065
19 | MKMAVISEHLGLSWAELARELQFSVEDINRIRVENPNSLLEQSVALLNLWVIRSGQNANMENLYTALQSIDRGEIVNMLE [E54S] | -0.136 ± 0.052

Row | Variant | abundance fitness
20 | MKMAVISEHLGLSWAELAHELQFSVEDINRIRVENPNSLLEQSVALLNLWVIREGQNANMENLYTALQSIDRGEIVNMLE [R19H] | 0.064 ± 0.18
21 | MKMAVISEHLGLSWAELASELQFSVEDINRIRVENPNSLLEQSVALLNLWVIREGQNANMENLYTALQSIDRGEIVNMLE [R19S] | -0.123 ± 0.084
22 | MKMAVISEHLGLSWAELARELQFSVEDINRIRVENPNSLLEQSVALLNLWVIREGQNANMENLYTALQSIDRGKIVNMLE [E74K] | -0.471 ± 0.12
23 | MKMAVISEHLGLSWAELARELQFSVEDITRIRVENPNSLLEQSVALLNLWVIREGQNANMENLYTALQSIDRGEIVNMLE [N29T] | -0.005 ± 0.082
24 | MKMAVISEHLGLSWAELARELQFSVEDINRIRVENPNSLLEQSVALLNLWVIREGQNANMENLYTALQSIDRGEIVNMLH [E80H] | -0.06 ± 0.11
25 | MKMAVISEHLGLSWAELARELQFSVEDINRIRVENCNSLLEQSVALLNLWVIREGQNANMENLYTALQSIDRGEIVNMLE [P36C] | -0.069 ± 0.098
26 | MKMAVISEHLGLSWAELARELQFSVEDINRIRVENENSLLEQSVALLNLWVIREGQNANMENLYTALQSIDRGEIVNMLE [P36E] | -0.066 ± 0.12
27 | MKMAVISEHLGLSWAELARELQFSVEDINRIRVENPNSLLEQSVALLMLWVIREGQNANMENLYTALQSIDRGEIVNMLE [N48M] | -0.575 ± 0.11
28 | MKMAVISEVLGLSWAELARELQFSVEDINRIRVENPNSLLEQSVALLNLWVIREGQNANMENLYTALQSIDRGEIVNMLE [H9V] | -0.712 ± 0.13
29 | MKMAVISEHLGLSWAELARALQFSVEDINRIRVENPNSLLEQSVALLNLWVIREGQNANMENLYTALQSIDRGEIVNMLE [E20A] | -0.136 ± 0.059
30 | MKMAVISEHLGLSWAELARYLQFSVEDINRIRVENPNSLLEQSVALLNLWVIREGQNANMENLYTALQSIDRGEIVNMLE [E20Y] | -0.286 ± 0.12
31 | MKMAVISEHLGLSWAELARELQFSVEDINRIRVENPNSLLEQSVALLNLWVIREGQNANMENLYTALQQIDRGEIVNMLE [S69Q] | -0.137 ± 0.11
32 | MKNAVISEHLGLSWAELARELQFSVEDINRIRVENPNSLLEQSVALLNLWVIREGQNANMENLYTALQSIDRGEIVNMLE [M3N] | -0.748 ± 0.47
33 | MKMAVISEHLGLSLAELARELQFSVEDINRIRVENPNSLLEQSVALLNLWVIREGQNANMENLYTALQSIDRGEIVNMLE [W14L] | -0.538 ± 0.072
34 | MKMAVISEHLGLSWAELARELQFSVEDINRIRVENPNSLLEQSVALLNLWVIREGQNANMENLYTALQSIGRGEIVNMLE [D71G] | 0.095 ± 0.04
35 | MKMAVISEHLGLSWAELARELQFSVEDINRIRVENPNSLLEQSVALWNLWVIREGQNANMENLYTALQSIDRGEIVNMLE [L47W] | -0.673 ± 0.12
36 | MKMAVISEHLGLSWAELARELQFSVEDINRIRVENPNSLLHQSVALLNLWVIREGQNANMENLYTALQSIDRGEIVNMLE [E41H] | -0.161 ± 0.14
37 | MKMAVISEHLGLSWAELARELQFSVEDINRIRVENPNSLLEQSVALLNLWVIREGQNENMENLYTALQSIDRGEIVNMLE [A58E] | -0.192 ± 0.1
38 | MKMAVISEHLGLSWAELARELQFSVEDINRIRVENPNSLLEQSVALLNLWVIREGQNRNMENLYTALQSIDRGEIVNMLE [A58R] | -0.049 ± 0.065
